Experiment [1] concerns the target TMR-labelled 2RA H4-tail peptide. Briefly: fluorescence polarisation.
Experiment [2] addresses TMR-labelled wt H4-tail peptide. Nature of the experiment: fluorescence polarisation.

As to “wt Acf1 (accessory subunit of human ACF), isolated (from UniProt Q9NRL2 1-1556) (natural protein)”, the Kd was 41 nM in experiment [1] and 3 nM in experiment [2].

In the case of “ΔC-term Acf1 (residues 1423-1556 deleted) (from UniProt Q9NRL2 1-1422) (domain or fragment)”, the Kd in experiment [2] turned out to be 2 nM.
